Reference: PMC9482650, “Quantitative fragmentomics allow affinity mapping of interactomes” (Nature Communications, 2022)
Residue numbers refer to the chain shown, from its start.

How the values were obtained:
Assay in all cases: holdup assay
Design in all cases: key: below the threshold = too weak to quantify, mostly under pKd 3.1 to 4
Settings in all cases: plain residues with an end cap or a label only (N-terminal biotin on a linker: ado-ado)
ARHGAP21, Q5T5U3 = biological target: T1, ARHGAP21, Q5T5U3
T1 sequence (Q5T5U3 45-169, limits assumed, looked up): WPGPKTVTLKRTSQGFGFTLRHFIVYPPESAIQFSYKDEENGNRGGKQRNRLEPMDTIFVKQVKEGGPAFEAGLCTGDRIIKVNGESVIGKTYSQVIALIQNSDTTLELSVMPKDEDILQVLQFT

ARHGEF11, O15085 = biological target: T2, ARHGEF11, O15085
T2 sequence (O15085 42-136, limits assumed, looked up): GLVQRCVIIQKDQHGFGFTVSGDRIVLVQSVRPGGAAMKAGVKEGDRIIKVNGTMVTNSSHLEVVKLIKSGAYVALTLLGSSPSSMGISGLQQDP

DFNB31_3, Q9P202 = biological target: T3, DFNB31_3, Q9P202
T3 sequence (Q9P202 811-907, limits assumed, looked up): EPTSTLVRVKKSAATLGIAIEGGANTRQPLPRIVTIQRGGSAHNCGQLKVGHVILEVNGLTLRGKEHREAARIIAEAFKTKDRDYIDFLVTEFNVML

DLG4_2, P78352 = biological target: DLG4_2, P78352
DLG4_2, P78352, sequence (P78352 155-259): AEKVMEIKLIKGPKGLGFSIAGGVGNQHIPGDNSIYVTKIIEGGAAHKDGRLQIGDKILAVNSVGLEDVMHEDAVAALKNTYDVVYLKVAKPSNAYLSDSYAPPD

FRMPD1, Q5SYB0 = biological target: T4, FRMPD1, Q5SYB0
T4 sequence (Q5SYB0 52-145, limits assumed, looked up): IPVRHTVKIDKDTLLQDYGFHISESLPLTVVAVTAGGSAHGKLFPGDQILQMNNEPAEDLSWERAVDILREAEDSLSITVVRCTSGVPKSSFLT

GIPC2, Q8TF65 = biological target: GIPC2, Q8TF65
GIPC2, Q8TF65, sequence (Q8TF65 112-203): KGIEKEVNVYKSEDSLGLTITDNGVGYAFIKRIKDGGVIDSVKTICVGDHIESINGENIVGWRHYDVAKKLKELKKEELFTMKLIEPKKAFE

GRID2IP_2, A4D2P6 = biological target: GRID2IP_2, A4D2P6
GRID2IP_2, A4D2P6, sequence (A4D2P6 272-370): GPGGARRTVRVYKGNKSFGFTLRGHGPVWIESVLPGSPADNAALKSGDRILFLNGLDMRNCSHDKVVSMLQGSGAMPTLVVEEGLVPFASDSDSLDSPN

GRIP1_5, Q9Y3R0 = biological target: T5, GRIP1_5, Q9Y3R0
T5 sequence (Q9Y3R0 568-668, limits assumed, looked up): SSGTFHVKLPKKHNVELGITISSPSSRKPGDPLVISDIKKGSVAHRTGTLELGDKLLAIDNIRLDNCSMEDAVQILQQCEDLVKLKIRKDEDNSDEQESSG

GRIP2_4, Q9C0E4 = biological target: GRIP2_4, Q9C0E4
GRIP2_4, Q9C0E4, sequence (Q9C0E4 446-548): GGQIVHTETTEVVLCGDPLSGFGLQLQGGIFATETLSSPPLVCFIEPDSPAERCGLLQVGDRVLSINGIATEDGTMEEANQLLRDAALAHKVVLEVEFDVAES

IL16_3, Q14005 = biological target: IL16_3, Q14005
IL16_3, Q14005, sequence (Q14005 1107-1207): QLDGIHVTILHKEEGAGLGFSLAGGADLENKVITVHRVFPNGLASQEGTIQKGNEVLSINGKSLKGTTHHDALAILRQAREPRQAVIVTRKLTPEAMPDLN

Inadl_10, Q8NI35 = biological target: Inadl_10, Q8NI35
Inadl_10, Q8NI35, sequence (Q8NI35 1673-1763): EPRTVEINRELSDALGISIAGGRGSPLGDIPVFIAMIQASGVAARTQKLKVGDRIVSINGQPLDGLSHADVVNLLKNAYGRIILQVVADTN

Inadl_8, Q8NI35 = biological target: Inadl_8, Q8NI35
Inadl_8, Q8NI35, sequence (Q8NI35 1425-1530): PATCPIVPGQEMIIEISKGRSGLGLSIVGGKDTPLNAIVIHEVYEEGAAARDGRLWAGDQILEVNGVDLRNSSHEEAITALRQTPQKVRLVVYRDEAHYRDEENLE

LIN7B, Q9HAP6 = biological target: T6, LIN7B, Q9HAP6
T6 sequence (Q9HAP6 88-185, limits assumed, looked up): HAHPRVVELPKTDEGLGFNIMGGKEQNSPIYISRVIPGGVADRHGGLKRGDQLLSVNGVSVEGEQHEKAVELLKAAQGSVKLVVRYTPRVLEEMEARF

LIN7C, Q9NUP9 = biological target: T7, LIN7C, Q9NUP9
T7 sequence (Q9NUP9 88-185, limits assumed, looked up): T6 sequence (Q9HAP6 88-185, limits assumed, looked up) with A2S, D13E, V35I, V40I, Q65H, S79K, R89K, A96S

LNX1_1, Q8TBB1 = biological target: LNX1_1, Q8TBB1
LNX1_1, Q8TBB1, sequence (Q8TBB1 261-371): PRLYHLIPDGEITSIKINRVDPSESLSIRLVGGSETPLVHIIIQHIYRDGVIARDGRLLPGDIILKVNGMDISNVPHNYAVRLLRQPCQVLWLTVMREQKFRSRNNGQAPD

MAGI2_4, Q86UL8 = biological target: MAGI2_4, Q86UL8
MAGI2_4, Q86UL8, sequence (Q86UL8 772-865): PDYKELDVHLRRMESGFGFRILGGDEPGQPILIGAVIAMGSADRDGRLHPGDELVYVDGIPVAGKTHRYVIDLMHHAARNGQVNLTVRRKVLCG

MPP2, Q14168 = biological target: T8, MPP2, Q14168
T8 sequence (Q14168 180-250, limits assumed, looked up): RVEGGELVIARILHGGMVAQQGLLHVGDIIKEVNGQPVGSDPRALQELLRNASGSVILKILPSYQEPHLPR

NHERF3_3, Q5T2W1 = biological target: T9, NHERF3_3, Q5T2W1
T9 sequence (Q5T2W1 238-333, limits assumed, looked up): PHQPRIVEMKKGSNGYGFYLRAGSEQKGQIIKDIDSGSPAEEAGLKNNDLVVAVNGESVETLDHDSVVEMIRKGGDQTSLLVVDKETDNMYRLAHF

NHERF4_2, Q86UT5 = biological target: NHERF4_2, Q86UT5
NHERF4_2, Q86UT5, sequence (Q86UT5 220-308): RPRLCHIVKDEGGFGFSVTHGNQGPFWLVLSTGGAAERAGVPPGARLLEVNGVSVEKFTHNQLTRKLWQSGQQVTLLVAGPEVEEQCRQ

NOS1, P29475 = biological target: NOS1, P29475
NOS1, P29475, sequence (P29475 9-101): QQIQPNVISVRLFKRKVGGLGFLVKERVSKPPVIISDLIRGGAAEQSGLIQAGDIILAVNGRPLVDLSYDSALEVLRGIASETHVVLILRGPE

PARD3B_1, Q8TEW8 = biological target: T10, PARD3B_1, Q8TEW8
T10 sequence (Q8TEW8 196-299, limits assumed, looked up): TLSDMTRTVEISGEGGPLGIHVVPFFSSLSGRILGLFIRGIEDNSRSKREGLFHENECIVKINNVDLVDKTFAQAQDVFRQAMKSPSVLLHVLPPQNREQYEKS

PARD3_3, Q8TEW0 = biological target: PARD3_3, Q8TEW0
PARD3_3, Q8TEW0, sequence (Q8TEW0 582-685): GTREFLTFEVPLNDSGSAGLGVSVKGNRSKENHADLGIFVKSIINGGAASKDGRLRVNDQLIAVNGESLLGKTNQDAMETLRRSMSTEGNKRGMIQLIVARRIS

PCLO, Q9Y6V0 = biological target: T11, PCLO, Q9Y6V0
T11 sequence (Q9Y6V0 4491-4600, limits assumed, looked up): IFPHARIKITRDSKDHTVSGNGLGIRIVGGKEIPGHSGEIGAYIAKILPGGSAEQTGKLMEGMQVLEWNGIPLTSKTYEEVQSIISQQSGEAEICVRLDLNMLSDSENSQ

PTPN13_1, Q12923 = biological target: T12, PTPN13_1, Q12923
T12 sequence (Q12923 1088-1188, limits assumed, looked up): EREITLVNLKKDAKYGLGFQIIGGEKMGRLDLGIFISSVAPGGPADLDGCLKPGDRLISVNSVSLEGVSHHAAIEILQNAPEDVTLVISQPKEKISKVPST

NVYGTESVKI [GRIA3, P42263] was tested, and the pKd (ARHGAP21, Q5T5U3) was 4.38, the pKd (ARHGEF11, O15085) was “below the threshold” and the pKd (DFNB31_3, Q9P202) was “below the threshold”. The pKd (DLG4_2, P78352) was “below the threshold”, the pKd (FRMPD1, Q5SYB0) was “below the threshold” and the pKd (GIPC2, Q8TF65) was “below the threshold”. For the same binder, the pKd (GRID2IP_2, A4D2P6) was “below the threshold”, the pKd (GRIP1_5, Q9Y3R0) was “below the threshold” and the pKd (GRIP2_4, Q9C0E4) was “below the threshold”. The pKd (IL16_3, Q14005) was “below the threshold”, the pKd (Inadl_10, Q8NI35) was “below the threshold” and the pKd (Inadl_8, Q8NI35) was “below the threshold”. For the same binder, the pKd (LIN7B, Q9HAP6) was “below the threshold”, the pKd (LIN7C, Q9NUP9) was “below the threshold” and the pKd (LNX1_1, Q8TBB1) was “below the threshold”. For the same binder, the pKd (MAGI2_4, Q86UL8) was “below the threshold”, the pKd (MPP2, Q14168) was “below the threshold” and the pKd (NHERF3_3, Q5T2W1) was “below the threshold”. The pKd (NHERF4_2, Q86UT5) was “below the threshold”, the pKd (NOS1, P29475) was 3.56 and the pKd (PARD3B_1, Q8TEW8) was 4.8. The pKd (PARD3_3, Q8TEW0) was 3.73, the pKd (PCLO, Q9Y6V0) was “below the threshold” and the pKd (PTPN13_1, Q12923) was “below the threshold”.

With ETSLVKGIDI [DENND5A, Q6IQ26] the pKd (ARHGAP21, Q5T5U3) was 4.25, the pKd (ARHGEF11, O15085) was 3.79 and the pKd (DFNB31_3, Q9P202) was “below the threshold”. For the same binder, the pKd (DLG4_2, P78352) was “below the threshold”, the pKd (FRMPD1, Q5SYB0) was “below the threshold” and the pKd (GIPC2, Q8TF65) was 3.54. The pKd (GRID2IP_2, A4D2P6) was “below the threshold”, the pKd (GRIP1_5, Q9Y3R0) was “below the threshold” and the pKd (GRIP2_4, Q9C0E4) was “below the threshold”. For the same binder, the pKd (IL16_3, Q14005) was “below the threshold”, the pKd (Inadl_10, Q8NI35) was “below the threshold” and the pKd (Inadl_8, Q8NI35) was “below the threshold”. For the same binder, the pKd (LIN7B, Q9HAP6) was “below the threshold”, the pKd (LIN7C, Q9NUP9) was “below the threshold” and the pKd (LNX1_1, Q8TBB1) was 3.79. For the same binder, the pKd (MAGI2_4, Q86UL8) was 3.66, the pKd (MPP2, Q14168) was “below the threshold” and the pKd (NHERF3_3, Q5T2W1) was “below the threshold”. For the same binder, the pKd (NHERF4_2, Q86UT5) was “below the threshold”, the pKd (NOS1, P29475) was 3.52 and the pKd (PARD3B_1, Q8TEW8) was 4.23. The pKd (PARD3_3, Q8TEW0) was 3.83, the pKd (PCLO, Q9Y6V0) was “below the threshold” and the pKd (PTPN13_1, Q12923) was “below the threshold”.

Work on ANGLMQTSKL [SSTR5, P35346] yielded a pKd (ARHGAP21, Q5T5U3) of 3.97, a pKd (ARHGEF11, O15085) of 3.8 and a pKd (DFNB31_3, Q9P202) of 4.22. For the same binder, the pKd (DLG4_2, P78352) was “below the threshold”, the pKd (FRMPD1, Q5SYB0) was “below the threshold” and the pKd (GIPC2, Q8TF65) was “below the threshold”. For the same binder, the pKd (GRID2IP_2, A4D2P6) was 4.48, the pKd (GRIP1_5, Q9Y3R0) was “below the threshold” and the pKd (GRIP2_4, Q9C0E4) was “below the threshold”. For the same binder, the pKd (IL16_3, Q14005) was “below the threshold”, the pKd (Inadl_10, Q8NI35) was “below the threshold” and the pKd (Inadl_8, Q8NI35) was “below the threshold”. For the same binder, the pKd (LIN7B, Q9HAP6) was 3.47, the pKd (LIN7C, Q9NUP9) was “below the threshold” and the pKd (LNX1_1, Q8TBB1) was “below the threshold”. For the same binder, the pKd (MAGI2_4, Q86UL8) was “below the threshold”, the pKd (MPP2, Q14168) was “below the threshold” and the pKd (NHERF3_3, Q5T2W1) was 3.81. The pKd (NHERF4_2, Q86UT5) was “below the threshold”, the pKd (NOS1, P29475) was “below the threshold” and the pKd (PARD3B_1, Q8TEW8) was 4.16. For the same binder, the pKd (PARD3_3, Q8TEW0) was “below the threshold”, the pKd (PCLO, Q9Y6V0) was “below the threshold” and the pKd (PTPN13_1, Q12923) was “below the threshold”.

In the case of SRPRPDDLEI [GJA1, P17302], the pKd (ARHGAP21, Q5T5U3) is reported as 3.74, the pKd (ARHGEF11, O15085) is reported as “below the threshold” and the pKd (DFNB31_3, Q9P202) is reported as “below the threshold”. For the same binder, the pKd (DLG4_2, P78352) was “below the threshold”, the pKd (FRMPD1, Q5SYB0) was “below the threshold” and the pKd (GIPC2, Q8TF65) was “below the threshold”. The pKd (GRID2IP_2, A4D2P6) was “below the threshold”, the pKd (GRIP1_5, Q9Y3R0) was “below the threshold” and the pKd (GRIP2_4, Q9C0E4) was “below the threshold”. The pKd (IL16_3, Q14005) was “below the threshold”, the pKd (Inadl_10, Q8NI35) was “below the threshold” and the pKd (Inadl_8, Q8NI35) was “below the threshold”. The pKd (LIN7B, Q9HAP6) was “below the threshold”, the pKd (LIN7C, Q9NUP9) was “below the threshold” and the pKd (LNX1_1, Q8TBB1) was “below the threshold”. For the same binder, the pKd (MAGI2_4, Q86UL8) was “below the threshold”, the pKd (MPP2, Q14168) was “below the threshold” and the pKd (NHERF3_3, Q5T2W1) was “below the threshold”. The pKd (NHERF4_2, Q86UT5) was “below the threshold”, the pKd (NOS1, P29475) was “below the threshold” and the pKd (PARD3B_1, Q8TEW8) was “below the threshold”. For the same binder, the pKd (PARD3_3, Q8TEW0) was 3.74, the pKd (PCLO, Q9Y6V0) was “below the threshold” and the pKd (PTPN13_1, Q12923) was “below the threshold”.
